Substitutions are numbered along the chain they refer to.
Experiments:
[1] = molecular target: T1, RccR H148A H148A (Pseudomonas aeruginosa PAO1) (UniProt Q9HTC8); assay: EMSA; details: EMSA: 10 nM FAM-DNA, 20 mM Tris-HCl pH 8.5, 150 mM KCl, 5 mM MgCl2, 1 mM EDTA, 1 mM DTT, 0.8% Tween 20, 2.5% glycerol, on ice 30 min; 6% native PAGE, 0.5x TBE
T1 sequence: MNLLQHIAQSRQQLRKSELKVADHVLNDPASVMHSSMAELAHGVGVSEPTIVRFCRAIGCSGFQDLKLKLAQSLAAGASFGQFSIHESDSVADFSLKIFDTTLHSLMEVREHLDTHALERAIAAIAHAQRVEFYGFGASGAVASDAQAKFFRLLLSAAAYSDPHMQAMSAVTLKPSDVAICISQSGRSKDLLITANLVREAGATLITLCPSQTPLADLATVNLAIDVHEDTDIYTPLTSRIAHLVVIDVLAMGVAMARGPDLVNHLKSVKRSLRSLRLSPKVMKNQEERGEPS

[2] = molecular target: T2, RccR H164A H164A (Pseudomonas aeruginosa PAO1) (UniProt Q9HTC8); assay: EMSA; details: EMSA: 10 nM FAM-DNA, 20 mM Tris-HCl pH 8.5, 150 mM KCl, 5 mM MgCl2, 1 mM EDTA, 1 mM DTT, 0.8% Tween 20, 2.5% glycerol, on ice 30 min; 6% native PAGE, 0.5x TBE
T2 sequence: T1 sequence with A148H, H164A

[3] = molecular target: T3, RccR S139A S139A (Pseudomonas aeruginosa PAO1) (UniProt Q9HTC8); assay: EMSA; details: EMSA: 10 nM FAM-DNA, 20 mM Tris-HCl pH 8.5, 150 mM KCl, 5 mM MgCl2, 1 mM EDTA, 1 mM DTT, 0.8% Tween 20, 2.5% glycerol, on ice 30 min; 6% native PAGE, 0.5x TBE
T3 sequence: T1 sequence with S139A, A148H

[4] = molecular target: T4, RccR WT (Pseudomonas aeruginosa PAO1) (UniProt Q9HTC8); assay: EMSA; details: EMSA: 10 nM FAM-DNA, 20 mM Tris-HCl pH 8.5, 150 mM KCl, 5 mM MgCl2, 1 mM EDTA, 1 mM DTT, 0.8% Tween 20, 2.5% glycerol, on ice 30 min; 6% native PAGE, 0.5x TBE
T4 sequence: T1 sequence with A148H

[5] = molecular target: RccR (PA5438), RpiR family transcription factor of Pseudomonas aeruginosa PAO1 (Pseudomonas aeruginosa PAO1); assay: crystal structure

| Substance | binding [1] | binding [2] | binding [3] | binding [4] | stoichiometry N [5] |
| --- | --- | --- | --- | --- | --- |
| GGCTTGCTCCAGGGCGGAAAGGCTTCCAGAATCGGATGCCATAGGTGAGCGGCCGGCCTCGTGGGCGACCGCAGCTAATTCTTGGATGTTCTCCGGGGGTGTACCCGGCGACTTGTAGTTTTACTACAGATCAGTCTGAGAAACAGCCCTCTGGATACAATTTTTAGTAGTAAAACTACATTTCGATTGTCGCTGTCAGGCTATAAGGCCCGATGT (double strand) [aceE promoter] | no binding | no binding | no binding | binds | – |
| RccR (PA5438), RpiR family transcription factor of Pseudomonas aeruginosa PAO1 (natural protein) | – | – | – | – | 4 |
| TGTTTGCCTCACTCTGCTCTAGACCAGCTCTGGACCCGGGCCGCACGGCCTTGTAGTCCGAGCCGCGGCATACTACATGATGCCGCGGGAAAAATCAGTGGTTACGCGTCGCGTTACGACTGGATGACGCTTCACGGTCACGTTGGCCAGGCTCAATGTTCGCAAAAAAACTGTACTTTGTTCCAGATAAATCTAAAAACAGTACACGATTTATCACGAGCCCA (double strand) [glcB promoter] | – | – | – | binds | – |

Source: publication PMC10810197, “A KDPG sensor RccR governs Pseudomonas aeruginosa carbon metabolism and aminoglycoside antibiotic tolerance” (Nucleic Acids Research, 2023)
